The values below come from the supplement of paper PMC6755084.

To fix the notation:
B1: F1*; the commonest letter at each place (parent)
chain: GAGACCGCAACTGAAAAGTTGTTATCACTTGTCGTAAGACACTTTGGATGGGTTGAAGTTCTGCACGTAGAAGCAAAAGGC

In this data set the parent is B1. The experiment in a line: fraction ligated after 30 min (ligated reads / total reads); higher = more ligase activity. Conditions: with F1*sub RNA substrate (template-directed ligation), 42 °C. A digest of the protocol:
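Templates from an oligo pool were PCR-amplified, transcribed with T7 and gel-purified to give the ribozyme variants. Ligated and unligated products were separated on gel, reverse transcribed using barcoded primers, and read on a MiSeq. A quality filter of ≥20 was applied to core bases. Fraction ligated was taken as ligated reads as a share of all reads per variant.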
On to GAGACCGCAACTGAAAAGTTGTTATCAATTGTCCTAAGACACTTTGGATGGGTTGAAGTTCTGCACGTAGAAGCAAAAGGC [C28A G34C], for which the fraction ligated is 0.779.
GAGACCGCAACTGAAAAGTTGTTATCACTTGCCGTAAGACACTCTGGATGGGTTGAAGTTCTGCACGTAGAAGCAAAAGGC [T32C T44C]: the fraction ligated is 0.756.
In the case of GAGACCGCAACTGAAAAGTTGTTATCACTTGGCGTAAGACACTTTGGATGGGTTGAGGTTCTGCACGTAGAAGCAAAAGGC [T32G A57G], the fraction ligated came to 0.844.
For GAGACCGCAACTGAAAAGTTGTTATCACTTGTCCTAAGACACTTTTGATGGGTTGAAGTTCTGCACGTAGAAGCAAAAGGC [G34C G46T] the value was 0.762.
For GAGACCGCAACTGAAAAGTTGTTATCACTTGACGTAAGACACTTTTGATGGGTTGAAGTTCTGCACGTAGAAGCAAAAGGC [T32A G46T], the fraction ligated was 0.787.
GAGACCGCAACTGAAAAGTTGTTATCACTTGTCGTAAGACACTTTGGATGTGTTGAAGTTCTGCACGTAGAAGCAAAAGGC [G51T]: the fraction ligated stood at 0.792.
For the variant GAGACCGCAACTGAAAAGTTGTTATCACTTGTCCGAAGACACTTTGGATGGGTTGAAGTTCTGCACGTAGAAGCAAAAGGC [G34C T35G], the fraction ligated turned out to be 0.829.
As to GAGACCGCAACTGAAAAGTTGTTATCACTTGTCGTAAGTCCCTTTGGATGGGTTGAAGTTCTGCACGTAGAAGCAAAAGGC [A39T A41C], the fraction ligated stood at 0.782.
In the case of GAGACCGCAACTGAAAAGTTGTTATGACTTGTCGTAAGACACTTTGGAAGGGTTGAAGTTCTGCACGTAGAAGCAAAAGGC [C26G T49A], the fraction ligated came out at 0.188.
In the case of GAGACCGCAACTGAAAAGTTGTTATCACTTGTCGTAAGACGCTTTGGATGGGTTGACGTTCTGCACGTAGAAGCAAAAGGC [A41G A57C], the fraction ligated was determined as 0.735.
For the variant GAGACCGCAACTGAAAAGTTGTTATCCCTTGTCGTAAGATACTTTGGATGGGTTGAAGTTCTGCACGTAGAAGCAAAAGGC [A27C C40T], the fraction ligated was 0.818.
With GAGACCGCAACTGAAAAGTTGTTATCACTTTTCGTATGACACTTTGGATGGGTTGAAGTTCTGCACGTAGAAGCAAAAGGC [G31T A37T] the figure was 0.815; with GAGACCGCAACTGAAAAGTTGTTATCACTTGTCGTAATACACTTTGGATGGGTTGAAGTTCTGCACGTAGAAGCAAAAGGC [G38T], 0.852.
Take GAGACCGCAACTGAAAAGTTGTTATCACTTGTCGTAAGACACTTTGGCGGGGTTGAAGTTCTGCACGTAGAAGCAAAAGGC [A48C T49G]: the fraction ligated was 0.763.
Consider GAGACCGCAACTGAAAAGTTGTTATCACTTGTCGTAAGACAGTTAGGATGGGTTGAAGTTCTGCACGTAGAAGCAAAAGGC [C42G T45A], for which the fraction ligated was found to be 0.796.
In the case of GAGACCGCAACTGAAAAGTTGTTATCGCATGTCGTAAGACACTTTGGATGGGTTGAAGTTCTGCACGTAGAAGCAAAAGGC [A27G T29A], the fraction ligated was found to be 0.829.
For the variant GAGACCGCAACTGAAAAGTTGTTATCACTTGTCGTAAGACCCTTTGGTTGGGTTGAAGTTCTGCACGTAGAAGCAAAAGGC [A41C A48T], the fraction ligated stood at 0.736.
Regarding GAGACCGCAACTGAAAAGTTGTTATCACTTGTCGTAACACTCTTTGGATGGGTTGAAGTTCTGCACGTAGAAGCAAAAGGC [G38C A41T], the fraction ligated is 0.785.
For GAGACCGCAACTGAAAAGTTGTTATCACTTGCCGTAAGACACTTTGAATGGGTTGAAGTTCTGCACGTAGAAGCAAAAGGC [T32C G47A], the fraction ligated was 0.669.
Consider GAGACCGCAACTGAAAAGTTGTTATAACTTGTCGGAAGACACTTTGGATGGGTTGAAGTTCTGCACGTAGAAGCAAAAGGC [C26A T35G], for which the fraction ligated was 0.794.
In the case of GAGACCGCAACTGAAAAGTTGTTATCACTTGTCGTAAGGCACTTTGGATGGGTTGCAGTTCTGCACGTAGAAGCAAAAGGC [A39G A56C], the fraction ligated worked out at 0.787.
On to GAGACCGCAACTGAAAAGTTGTTGTCACTTGACGTAAGACACTTTGGATGGGTTGAAGTTCTGCACGTAGAAGCAAAAGGC [A24G T32A], for which the fraction ligated came to 0.591.
For GAGACCGCAACTGAAAAGTTGTTATCACTTGTTGTAAGACACATTGGATGGGTTGAAGTTCTGCACGTAGAAGCAAAAGGC [C33T T43A], the fraction ligated amounted to 0.831.
For GAGACCGCAACTGAAAAGTTGTTATCACTTGTCGTAAGAGGCTTTGGATGGGTTGAAGTTCTGCACGTAGAAGCAAAAGGC [C40G A41G] the value was 0.807; for GAGACCGCAACTGAAAAGTTGTTATCACTGGTCGTAAGACCCTTTGGATGGGTTGAAGTTCTGCACGTAGAAGCAAAAGGC [T30G A41C], 0.834.
With GAGACCGCAACTGAAAAGTTGTTATCACTTGTCGTCAGACACATTGGATGGGTTGAAGTTCTGCACGTAGAAGCAAAAGGC [A36C T43A] the figure was 0.82.
On to GAGACCGCAACTGAAAAGTTGTTATCACATGTCGTAGGACACTTTGGATGGGTTGAAGTTCTGCACGTAGAAGCAAAAGGC [T29A A37G], for which the fraction ligated stood at 0.839.
In the case of GAGACCGCAACTGAAAAGTTGTTATCACTAGTCGTAAGACACTTTGGGTGGGTTGAAGTTCTGCACGTAGAAGCAAAAGGC [T30A A48G], the fraction ligated was 0.806.
For the variant GAGACCGCAACTGAAAAGTTGTTATCACGTGTCGTAAGACACTTTGGAGGGGTTGAAGTTCTGCACGTAGAAGCAAAAGGC [T29G T49G], the fraction ligated came out at 0.77.
For the variant GAGACCGCAACTGAAAAGTTGTTATCACTTCTCGTAAGACACTTTGGATGGGTTCAAGTTCTGCACGTAGAAGCAAAAGGC [G31C G55C], the fraction ligated amounted to 0.14.
With GAGACCGCAACTGAAAAGTTGTTATCACTTGTCGTAAGACACTTTGGACGGGTTGAAGTTCTGCACGTAGAAGCAAAAGGC [T49C], the fraction ligated was found to be 0.731.
Consider GAGACCGCAACTGAAAAGTTGTTATCACTTGTTGTAAGACACTGTGGATGGGTTGAAGTTCTGCACGTAGAAGCAAAAGGC [C33T T44G], for which the fraction ligated came to 0.815.
For GAGACCGCAACTGAAAAGTTGTTATTACTTGTCGTAAGACACTTGGGATGGGTTGAAGTTCTGCACGTAGAAGCAAAAGGC [C26T T45G] the value was 0.28; for GAGACCGCAACTGAAAAGTTGTTATCACTTGTCGTAAGAGACTTTGGATGGGTTCAAGTTCTGCACGTAGAAGCAAAAGGC [C40G G55C], 0.659.
